The record followed here is patent US12678474B2, “Screening of fixed-point coupling sites of cysteine-modified antibody-toxin conjugate (TDC)” (SICHUAN BAILI PHARMACEUTICAL CO. LTD., priority 2017, dated 2026).

As usually defined, the IC50 is the midpoint of a concentration-inhibition curve. Usually EC50 stands for the concentration giving half of the maximal effect.

Residue numbers refer to the chain shown, from its start.

B1: 2A1-HC-Cys379ins: 2A1 antibody with cysteine inserted at heavy chain position 379 (SEQ ID NO: 38) (antibody)
heavy: DVQLQESGPSLVKPSQSLSLTCTVTGYSITSDFAWNWIRQFPGNKLEWMGYISYSGNTRYNPSLKSRISITRDTSKNQFFLQLNSVTIEDTATYYCVTAGRGFPYWGQGTLVTVSAASTKGPSVFPLAPSSKSTSGGTAALGCLVKDYFPEPVTVSWNSGALTSGVHTFPAVLQSSGLYSLSSVVTVPSSSLGTQTYICNVNHKPSNTKVDKRVEPKSCDKTHTCPPCPAPEFLGGPSVFLFPPKPKDTLMISRTPEVTCVVVDVSHEDPEVKFNWYVDGVEVHNAKTKPREEQYNSTYRVVSVLTVLHQDWLNGKEYKCKVSNKALPAPIEKTISKAKGQPREPQVYTLPPSRDELTKNQVSLTCLVKGFYPSDIAVEWECSNGQPENNYKTTPPVLDSDGSFFLYSKLTVDKSRWQQGNVFSCSVMHEALHNHYTQKSLSLSPG
light: DILMTQSPSSMSVSLGDTVSITCHSSQDINSNIGWLQQRPGKSFKGLIYHGTNLDDEVPSRFSGSGSGADYSLTISSLESEDFADYYCVQYAQFPWTFGGGTKLEIKRTVAAPSVFIFPPSDEQLKSGTASVVCLLNNFYPREAKVQWKVDNALQSGNSQESVTEQDSKDSTYSLSSTLTLSKADYEKHKVYACEVTHQGLSSPVTKSFNRGEC
B2: 2A1-HC-Cys354ins: 2A1 antibody with cysteine inserted at heavy chain position 354 (SEQ ID NO: 30) (antibody)
heavy: DVQLQESGPSLVKPSQSLSLTCTVTGYSITSDFAWNWIRQFPGNKLEWMGYISYSGNTRYNPSLKSRISITRDTSKNQFFLQLNSVTIEDTATYYCVTAGRGFPYWGQGTLVTVSAASTKGPSVFPLAPSSKSTSGGTAALGCLVKDYFPEPVTVSWNSGALTSGVHTFPAVLQSSGLYSLSSVVTVPSSSLGTQTYICNVNHKPSNTKVDKRVEPKSCDKTHTCPPCPAPEFLGGPSVFLFPPKPKDTLMISRTPEVTCVVVDVSHEDPEVKFNWYVDGVEVHNAKTKPREEQYNSTYRVVSVLTVLHQDWLNGKEYKCKVSNKALPAPIEKTISKAKGQPREPQVYTLPPSRDECLTKNQVSLTCLVKGFYPSDIAVEWESNGQPENNYKTTPPVLDSDGSFFLYSKLTVDKSRWQQGNVFSCSVMHEALHNHYTQKSLSLSPG
light: B1 light
B3: 2A1-HC-Cys254ins: 2A1 antibody with cysteine inserted at heavy chain position 254 (SEQ ID NO: 22) (antibody)
heavy: DVQLQESGPSLVKPSQSLSLTCTVTGYSITSDFAWNWIRQFPGNKLEWMGYISYSGNTRYNPSLKSRISITRDTSKNQFFLQLNSVTIEDTATYYCVTAGRGFPYWGQGTLVTVSAASTKGPSVFPLAPSSKSTSGGTAALGCLVKDYFPEPVTVSWNSGALTSGVHTFPAVLQSSGLYSLSSVVTVPSSSLGTQTYICNVNHKPSNTKVDKRVEPKSCDKTHTCPPCPAPEFLGGPSVFLFPPKPKDTLMISRTPCEVTCVVVDVSHEDPEVKFNWYVDGVEVHNAKTKPREEQYNSTYRVVSVLTVLHQDWLNGKEYKCKVSNKALPAPIEKTISKAKGQPREPQVYTLPPSRDELTKNQVSLTCLVKGFYPSDIAVEWESNGQPENNYKTTPPVLDSDGSFFLYSKLTVDKSRWQQGNVFSCSVMHEALHNHYTQKSLSLSPG
light: B1 light
B4: 2A1-HC-Cys357ins: 2A1 antibody with cysteine inserted at heavy chain position 357 (SEQ ID NO: 34) (antibody)
heavy: B2 heavy with C357L, L358T, T359K, K360C
light: B1 light
B5: 2A1-HC-Cys255ins: 2A1 antibody with cysteine inserted at heavy chain position 255 (SEQ ID NO: 24) (antibody)
heavy: B3 heavy with C257E, E258C
light: B1 light
B6: 2A1-HC-Cys386ins: 2A1 antibody with cysteine inserted at heavy chain position 386 (SEQ ID NO: 40) (antibody)
heavy: B1 heavy with C382S, S383N, N384G, G385Q, Q386P, P387E, E388N, N389C
light: B1 light
B7: 2A1-HC-Cys355ins: 2A1 antibody with cysteine inserted at heavy chain position 355 (SEQ ID NO: 32) (antibody)
heavy: B2 heavy with C357L, L358C
light: B1 light
B8: 2A1-HC-Cys259ins: 2A1 antibody with cysteine inserted at heavy chain position 259 (SEQ ID NO: 28) (antibody)
heavy: B3 heavy with C257E, E258V, V259T, T260C, C261V, V262C
light: B1 light
B9: 2A1-HC-Cys258ins: 2A1 antibody with cysteine inserted at heavy chain position 258 (SEQ ID NO: 26) (antibody)
heavy: B3 heavy with C257E, E258V, V259T, T260C
light: B1 light

One experiment concerns EGFRwt-overexpressing human skin squamous cell carcinoma cell line A431. Nature of the experiment: MTS cytotoxicity (cell viability) assay, A431. It is filed as cell-based. The conditions noted are these: antibodies; 72 hours. As for the experimental part: (§1) TDC cytotoxic activity was determined via the following experimental procedure: TDC was added to EGFR-overexpressing or […]-expressing human tumor cell culture medium, and cell viability was determined after 72 hours of cell culture. Cell-based in vitro experiments were used to determine cell viability, cytotoxicity and programmed cell death induced by TDC constituted by the present invention.
(§2) In vitro efficacy of antibody-toxin conjugates was determined via a cell proliferation assay. A CellTiter ^96® AqueousOne Solution Cell was Proliferation Assay purchased commercially from Promega Corp. (Madison, WI). CellTiter ^96® Aqueous One Solution Cell Proliferation Assay (a) is a colorimetric method used to detect the number of living cells in cell proliferation and cytotoxicity experiments. The above reagent contains the novel tetrazole compound [3-(4,5-dimethylthiazol-2-yl)-5-(3-carboxymethoxyphenyl)-2-(4-sulfophenyl)-2H-tetrazolium, inner salt; MTS) as well as an electronic coupling agent (phenazine ethosulfate; PES). […] This convenient “single solution” model is an improvement on the first generation of the CellTiter ^96® Aqueous Assay, in which the electronic coupling agent PMS was supplied separately from the MTS solution. MTS (Owen's reagent) is reduced by cellular organisms into a colored formazan product, which can be directly dissolved in culture medium (FIG. 1). This conversion is likely facilitated by NADPH NADH produced by dehydrogenase present in metabolically active cells. For the assay, a small amount of CellTiter ^96® Aqueous One Solution Reagent is added directly to the medium present in the wells of the culture plate, after which incubation is performed for 1 to 4 hours, followed by reading of the absorbance value at 490 nm using a microplate reader.
(§3) The amount of formazan product detected at 490 nm is proportional to the number of viable cells in culture. Because the formazan product of MTS is soluble in tissue culture medium, CellTiter ^96® Aqueous One Solution Assay requires fewer steps than the MTT or INT methods. A431 (EGFR-overexpressing cells) and U87-[…] (an […] mutant stable cell line) were used in the present invention as an investigative system for performing in vitro efficacy assays. In 96-well plates, cells were plated at 6000 cells/well and 24 hours later, antibody spiking was carried out. […] Cell viability was assayed via MTS 72 hours after treatment.
As to B1, the IC50 is > 10 µM.

As to B2, the IC50 was > 10 µM.

On to B3, for which the IC50 was > 10 µM.

On to B4, for which the concentration for half-maximal inhibition (IC50) is > 10 µM.

Turning to B5, the 50% inhibitory concentration (IC50) was > 10 µM.

For the molecule B6, the IC50 is > 10 µM.

On to B7, for which the IC50 was > 10 µM.

With B8, the IC50 was > 10 µM.

Consider B9, for which the IC50 was > 10 µM.

The subject of the next experiment is EFGRvIII-overexpressing human glioma cell line U87-EGFRvIII. In words: MTS cytotoxicity (cell viability) assay, U87-EGFRvIII. To be noted: antibodies; 72 hours; read-out: IC50, U87MG-EGFRvIII (MTS). It is filed as cell-based. The method, then: as §1, §2, §3
For B1, the IC50 was > 10 µM.

For B2, the IC50 is > 10 µM.

As to B3, the IC50 is > 10 µM.

In the case of B4, the IC50 was > 10 µM.

Turning to B5, the IC50 was > 10 µM.

Turning to B6, the IC50 was > 10 µM.

Turning to B7, the IC50 was > 10 µM.

Regarding B8, the IC50 is > 10 µM.

Regarding B9, the IC50 is > 10 µM.

A further experiment addresses T1, Recombinant EGFRVIII-His*6 antigen (Homo sapiens, UniProt P00533, DELINS30-297G).
T1 construct: His*6
In words: ELISA relative affinity for EGFRvIII.
Settings: not given
Format: binding. The source says:
Insertion Mutation Modification and Parent Antibody 2A1 for EGFRvIII • ELISA was used to compare the relative affinities of 2A1-LC-Cys110ins-mc-vc-PAB-MMAE TDC, 2A1-LC-Cys111ins-mc-vc-PAB-MMAE TDC, 2A1-LC-Cys142ins-mc-vc-PAB-MMAE TDC, 2A1-HC-Cys254ins-mc-vc-PAB-MMAE TDC, 2A1-HC-Cys255ins-mc-vc-PAB-MMAE TDC, 2A1-HC-Cys258ins-mc-vc-PAB-MMAE TDC, 2A1-HC-Cys259ins-mc-vc-PAB-MMAE TDC, 2A1-HC-Cys354ins-mc-vc-PAB-MMAE TDC, 2A1-HC-Cys355ins-mc-vc-PAB-MMAE TDC, 2A1-HC-Cys357ins-mc-vc-PAB-MMAE TDC, 2A1-HC-Cys378ins-mc-vc-PAB-MMAE TDC, 2A1-HC-Cys379ins-mc-vc-PAB-MMAE TDC, 2A1-HC-Cys386ins-mc-vc-PAB-MMAE TDC, 2A1-HC-Cys387ins-mc-vc-PAB-MMAE TDC, 2A1-HC-Cys410ins-mc-vc-PAB-MMAE TDC, and 2A1 for EGFRvIII. The specific process used was as follows:
Recombinant […]-His*6 antigen was used to coat plates; fish skin gelatin was used as a seal; dilution of each insertion mutant antibody was performed separately, up to a maximum concentration 10 μg/ml and a 4-fold gradient dilution was performed for a total of 11 concentrations; HRP-labeled secondary antibodies were used for incubation; TMB was used for development and absorption detection was performed at 450 nm.
In the case of B1, the “Affinity for EGFRvIII relative to 2A1 (in words)” value is listed as “maintained 2A1 affinity”.

For B2, the “Affinity for EGFRvIII relative to 2A1 (in words)” value is listed as “maintained 2A1 affinity”.

Turning to B3, the “Affinity for EGFRvIII relative to 2A1 (in words)” value is reported as “maintained 2A1 affinity”.

B5: the “Affinity for EGFRvIII relative to 2A1 (in words)” value was “maintained 2A1 affinity”.

Turning to B6, the “Affinity for EGFRvIII relative to 2A1 (in words)” value is given as “maintained 2A1 affinity”.

Take B7: the “Affinity for EGFRvIII relative to 2A1 (in words)” value is on record as “maintained 2A1 affinity”.

Turning to B8, the “Affinity for EGFRvIII relative to 2A1 (in words)” value is reported as “maintained 2A1 affinity”.

As for B9, the “Affinity for EGFRvIII relative to 2A1 (in words)” value is given as “maintained 2A1 affinity”.

Still in this experiment, the particulars now being: EGFRvIII-coated plates, A450, read-out: EC50 (nM), mutant antibody affinity.
On to B1, for which the EC50 came out at 0.0409 nM.

For the molecule B2, the EC50 came out at 0.0405 nM.

Consider B3, for which the EC50 worked out at 0.0456 nM.

B4: the EC50 is 0.0403 nM.

On to B5, for which the EC50 came to 0.039 nM.

Take B6: the EC50 worked out at 0.0435 nM.

For the molecule B7, the concentration for a half-maximal effect (EC50) amounted to 0.0415 nM.

Consider B8, for which the EC50 was determined as 0.0431 nM.

B9: the concentration giving a half-maximal response (EC50) stood at 0.0423 nM.
